Results taken from the nanobody polyreactivity screen of Harvey et al. (2022).

assay: yeast display, Sf9 membrane polyspecificity reagent, FACS + sequencing; frameworks hold sequencing errors
In short: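 Nanobodies came from a synthetic yeast display library in Saccharomyces cerevisiae BJ5465, induced with galactose for 36–48 hours and stained for 1 hour at 4 °C with 10% biotinylated, detergent-solubilized Sf9 membrane reagent. Cells were enriched on streptavidin microbeads and then FACS-sorted, with low and high (top ~1%) gates set on anti-HA fluorescence for expression and streptavidin fluorescence for reagent binding. Each polyreactivity label reflects the gate a clone came from. Genes were amplified by colony PCR, sequenced by MiSeq 2 × 250 and filtered by CDR length.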

Sequence | polyreactivity (PSR sort gate)
QVQLVESGGGLVQAGGSLRLTCAASRRTFEHYAMGWYRQAPVKEREYVAAINSSDGGTYYADSVKGRFTISRDNAKNTVYLQMIRLKPDDSAVYYCAAAEFGSVPGYEMDYWGQGTQVTVSS | low polyreactivity
QVQLVESGGGLVQAGGSLRLTCAATGIIFSYYAKGWYRQAPGKERELVAAISWGGGSTFYADSVKGRFTISRDNAKKTVSLQMKSLKPEDNAVLFCDADYGGDFGMDYCGQGTQVTVSS | low polyreactivity
QVQLVESGGGLVQAGGSLRLTCAATGSTFHLYGMGWYRKAPGKESELVAAITKRGTSTYYADSVKGRFTISRDNAKNTVYLQINSLKPEDTAVYYCADEYTKEQRGFDYWGQGTQVTLSS | high polyreactivity
QVQLVESGGGLVQAGGSLRLTCADSGSILYINAMGRYIQAPGKEREWVAAITYSGGSTYYADSVKGRFTISRDNAKNTVYLQMNSLKPEDTAVYYCAADAVVAGRYDGHDYWGQGTQVTVSS | low polyreactivity
QVQLVESGGGLVQAGGSLRLTCDASGRTFYWNAMGWYRQAPGKERELVAAISNCGTTTYYADSVKGRFTISRDNAKNTVYLQLNSLKPEDTAVYYCAADIWYFDYEYWGQGTQVTLSS | high polyreactivity
QVQLVESGGGLVQAGGSLRLTCDASGSTFYHNAMGWYRQAPGKERELVAAITTSGGSTYYADSVKWRFTISRDNAKNTVYLQMNSLKPEDSAVYYCNVYRPYLAPYDYWGQGTQVTVSS | low polyreactivity
QVQLVESGGGLVQAGGSLRLTSAASGRIIDQNAMGWYRQAPGKERELVAAITSGGSTNYADSVKGRFTISRDNAKNTVYLQMNSLKPEDTAVYYCNSRDASRRYDYDFLERDSWGQGTQVTVSS | low polyreactivity
QVQLVESGGGLVQAGGSLRLTSAASGRTFFRYAMRWYRQAPGKERELVAAISRGGGRTYYADSVKGRFTISRDNAKNTVYLQMNSLKPEDTAVYYCNKTERSGSNYLGQGTQVTVSS | high polyreactivity
QVQLVESGGGLVQAGGSLRLTSADSGRTFYKYAMGWYIQAPGKERELVAANSQSGGSTYYADSVNGRFTISRDNAKNTVYLQMNSLKPEDTAVYYCAARRLPRKERKLYYWGQGSQVTVSS | high polyreactivity
QVQLVESGGGLVQAGGSLRLTSADTGFNFGSYAMGWSRQAHGKEREFVAAISSNGGNTYYADSVKGRFTISRDNAKNTVYLEINSLKPEDTAVSYCAARYPSGTRKWYGYWGQGTQVTVSS | high polyreactivity
QVQLVESGGGLVQAGGSLRVICAASGSIGRYAMGWSRQAPGKERELVAAISSSGGSTYYADSVKGRFTISRDNAKNTVYLQMNSLKPEDTAGYYCAACPGAQEDDYWGPGTQVTVSS | high polyreactivity
QVQLVESGGGLVQAGGSLRVSCAASGFIFGLYAMGWYRQAPGKERELVATISWDGGSTYYADSVKGRFTISRDNAKNTVYLQMNSLKPEDTAVYYCAATYLYRSPYVPMDYWGQGSQVTVSS | low polyreactivity
QVQLVESGGGLVQAGGSLRVSCAASGFIFSYSAMGWYRQAPGKERELVAAISRSGGRTYYADSVKGRFTISRDNAKNTVYLQMNSLKPEDTAVYYCAAPVSLRPIYDYWGHGTQVTVSS | high polyreactivity
QVQLVESGGGLVQAGGSLRVSCAASGFTFPYSAMGWYRQAPGKERELVAAIDWTGGSTYYADSVKGRFTISRDNPKNTVNLQINSLIPDDTAVYYCARDVDYYISSPTPPVVELDYWGQGTQVTVSS | low polyreactivity
QVQLVESGGGLVQAGGSLRVSCAASGIIFDYYVMGWYRQAPGQERELVAAISRSCDRTNYADSVKGRFTISRDNAKNTVYLQMNSLKPEDTAVYYCAARVSIRGGGYEYWGQGTQLTVSS | high polyreactivity
QVQLVESGGGLVQAGGSLRVSCAASGLTFGDYTMGWYRQAPGKERELVAAISTAGGSTYYADSVKGRFTISREHANNTVYLHMNSLKPEDTAVYYCNARRTHTRSHYYYWGQGTQVTVSS | high polyreactivity
QVQLVESGGGLVQAGGSLRVSCAASGRIFASYAMGWYRQAPGKERELVAAISLSGGSTYYADSVKGRFTISRDNAKNTVFLQMNSLKPEDTAVYYCAAKNYRRYRDYYWGQGTQVTVSS | high polyreactivity
QVQLVESGGGLVQAGGSLRVSCAASGRIFKSNAMGWYRPAPGKERELVASSTASGGRTYYADSVKGRFTISRDNAKNTVYLQMNSLKPEDTAVYYCAAGRPFSKYGYWGQGTQVTVTS | high polyreactivity
QVQLVESGGGLVQAGGSLRVSCAASGRILPRYAMGWYRQAPGKEREFVARIDSGGSTNYADSVKGRFTISRDNAKNTVYIQMNSLKPEDTAVYYCAAVGTAQAYAYFTYGYDYWGQGTQVTVSS | low polyreactivity
QVQLVESGGGLVQAGGSLRVSCAASGRTFIKYAMGWYRQAPGKERELVAAISRNGGSTNYADSVKGRFTISRDNAKNTVYFQMNSLKPEDTAVYYCAAVGTVSRTVGYNYWGQGTQVTVSS | high polyreactivity
QVQLVESGGGLVQAGGSLRVSCAASGRTFLSYTMGWYRPAPGKERQLVARISASGGSTYYADSVKGRFTISRDNAKITVYLQMNSLKPEDTAVYYCARVPYYLYYVTRPYDYWGQGTLVTVSS | low polyreactivity
QVQLVESGGGLVQAGGSLRVSCAASGSIFGPYAMGLYRQAPGKERELVATSTYYADSVKGRFTISRDNAKNTVYLQMHRLKPEDTAVYYCAKTPYYSGYGWGYDYWGQGTQVTVSS | low polyreactivity

Sequence | polyreactivity (PSR sort gate)
QVQLVESGGGLVQAGGSLRVSCAASGSIFGTYAMGWYRPAPGKERELVAAITSDGVDTYYADSVKGRFTISRDNAKNTVYLQMNSLKPEDTEVYYCAAEYEGLYGYGYWGQGTQVTVSS | high polyreactivity
QVQLVESGGGLVQAGGSLRVSCAASGSIFKIYAMGWYRLAPGKERELVASITGSGGSTYYADSVKGRFTISRDNAKNTVYLQRNCLKPEDTAVYYCAAAVLGSSKSEVDPDRPEYYYWGQGTQVTVSS | low polyreactivity
QVQLVESGGGLVQAGGSLRVSCAASGSIFLIYGMGWYRQAPGKERELVAAITARGGSTYYADSVKGRFTISRDNAKNTVYLQMNSLKPEDTAVYYCNADGYPDVGAGTYGYWGLGTQVTVSS | low polyreactivity
QVQLVESGGGLVQAGGSLRVSCAASGSIFYTYVMGWYREAPGKERELVAAISGTGGRTYYADSVKGRFTISRDNAKNTVYLQMNSLKPEDTAVYYCAALYNRVNGHYYWGQGTQVTVSS | high polyreactivity
QVQLVESGGGLVQAGGSLRVSCAASGSSFTYNAMGWYRQAPGKERELVASINSRGGTTYYADSVKGRFTISRDNAKNTVYFQMNSLKPEDTAVYYCATDVYRLGEYDYWGQGTQVTVSS | low polyreactivity
QVQLVESGGGLVQAGGSLRVSCAASGSTFRHYAMGWSRQAPGKEWELVAAISSTGGSTYYADSVKGRFTISRDNAKNTVYLQMNSLKPEDTAVYYCAARRLYWGQGTQVTVSS | high polyreactivity
QVQLVESGGGLVQAGGSLRVSCAASGSTFTDYDMVWYRQAPGKERELVAAITSGGSTNYADSVKGRFTISRDNAKNTVYLHMNSLKPEDTAVYYCNAERDSPTLNLDRGWEYDYWGQGTQVTVSS | low polyreactivity
QVQLVESGGGLVQAGGSLRVSCAASGSTFTWYAMGWYRQAPGKVRELVAAIRWSGGNTYYADSVKGRFTISRDNAKNTVFLQMNSLKPEDTAVYYCNAYQYFPRYDYWGQGTQVTVSS | high polyreactivity
QVQLVESGGGLVQAGGSLRVSCAASGSTFYIYAMGWSRQAPGKERELVARISGSGGSTYYADSVKGRFTISRDYAKNTVYLLMNSLKPEDTAVYYCAADDIYKYYQYYAFPYSRYDYWGQGTQLTVSS | low polyreactivity
QVQLVESGGGLVQAGGSLRVSCAASGYTFLRYAMGWYRQAPGKERELVAAISWSTGSTYYADSVKGRFTISRDNAKNTVYLQMNSLKPEDTAVYYCAAAGRHSGGRFYYWGQGTQVTVSS | high polyreactivity
QVQLVESGGGLVQAGGSLRVSCAASVRTLFGNALGWYRQAPGKERELLAAISFSGGRTEYADSVKGRFTISRDNAMNTVYLQMNSLKPEDTAVYYCAARTYSAPRNRYYYWGQGTQVTVSS | high polyreactivity
QVQLVESGGGLVQAGGSLRVSCASSGRIFVYDMGWYRQAPGKERELVAAITRGGSTKYADSVKGRFTISRDNAKNTVFLQMNSLKPADTAVYYCAADTRRYRFYYWGQGTQVSVSS | high polyreactivity
QVQLVESGGGLVQAGGSLRVSCASSGSTFVSYAMVWYRQAPGKERELVASISGSDGRTYYADSVKGRFTISRDNAKNTVYLQMKSLNPEDTAVYYCAKRYWRHPVFYLYDYWVQGTQVTVSS | high polyreactivity
QVQLVESGGGLVQAGGSLRVSSAASGRIFSIYAMGWYRQAPGKERELVAAISFRGTSTYADSVKGRFTISRDNAKNTVYLQMNSLKPEDTAVYFCAVSGFDVLWPSLGGELDYWGQGTQVTVSS | low polyreactivity
QVQLVESGGGLVQAGGSLRVSSAASGSIFDYYEMGWYRQAPGKEREMVAAINISGGDTYYADSVKGRFTISRDNAKNTVYLQMNSLNPEDTAVYYCAADWVTWWFSRVGWDYGYWGQGTQVTVSS | low polyreactivity
QVQLVESGGGLVQAGGSLRYSCAASGSIFYWYAMGWDRQAPGKERELVAGITYSGGNTYYADSVKGRFTISRDNAKNTVYLQMNSLKPEDTAVYDCAATRGYWRKWRMDYWGQGTQVTVSS | high polyreactivity
QVQLVESGGGLVQAGGSLSISCAASGITLGHNAMGWYRQAPGKDRELVAAISWSGDRTFYADSVKGRFTISRDNAKNTVYLQMNSLKPEDTAVYYCNAEIGWHNEGRLSTYDYWGQGTQVTVSS | low polyreactivity
QVQLVESGGGLVQAGGSLSLICAASGRTFGPNTMGWYRQAPGKERELVAAITGSGGSTYYADSVKGRFTISRDNAKNTVYLQMNSLKPEDTAVYYCAKSVRYPASDYWGQGTQVTVSS | low polyreactivity
QVQLVESGGGLVQAGGSLSLSCAASGFIFGAYAMGWYRQAPRKERELVADITQNSGSTYYADSVKGRFTISRDNAKYTVYLQMNSVKPEVTAVYFCNADWETADDYWGQGTQVTVSS | low polyreactivity
QVQLVESGGGLVQAGGSLSLSCAASGFIFGGYAMGWYRQAPGKERELVAAITWSGGNTYYADSVKGRFTISRDNAKNTVYLQMNSLKPEATAVYYCAADYWTKYVYWGQGTQVTVSS | low polyreactivity
QVQLVESGGGLVQAGGSLSLSCAASGFIFLGNAMGWYRQAPGKEREVVAAISSGGSTYADSVKGRFTISRDHAKNTVYLQMNSLKPEDTAVYYCAVDRAFRAQNYHEYDYWGQGSQVTVSS | low polyreactivity
